# Data taken from patent publication US10662413B2, “Recombinant DNA polymerase for improved incorporation of nucleotide analogues” (PERSONAL GENOMICS, INC., priority 2016, dated 2020).
# Test system: 5′Q-3′-Ga
molecule,measurement,value
"D480R: 9° N-III mutant D480R, nucleotide binding pocket (protein) MILDTDYITENGKPVIRVFKKENGEFKIEYDRTFEPYFYALLKDDSAIEDVKKVTAKRHGTVVKVKRAEKVQKKFLGRPIEVWKLYFNHPQDVPAIRDRIRAHPAVVDIYEYDIPFAKRYLIDKGLIPMEGDEELTMLAFAIATLYHEGEEFGTGPILMISYADGSEARVITWKKIDLPYVDVVSTEKEMIKRFLRVVREKDPDVLITYNGDNFDFAYLKKRCEELGIKFTLGRDGSEPKIQRMGDRFAVEVKGRIHFDLYPVIRRTINLPTYTLEAVYEAVFGKPKEKVYAEEIAQAWESGEGLERVARYSMEDAKVTYELGREFFPMEAQLSRLIGQSLWDVSRSSTGNLVEWFLLRKAYKRNELAPNKPDERELARRRGGYAGGYVKEPERGLWDNIVYLDFRSSAVSIIITHNVSPDTLNREGCKEYDVAPEVGHKFCKDFPGFIPSLLGDLLEERQKIKRKMKATVDPLEKKLLRYRQRLIKILANSFYGYYGYAKARWYCKECAESVTAWGREYIEMVIRELEEKFGFKVLYADTDGLHATIPGADAETVKKKAKEFLKYINPKLPGLLELEYEGFYVRGFFVTKKKYAVIDEEGKITTRGLEIVRRDWSEIAKETQARVLEAILKHGDVEEAVRIVKEVTEKLSKYEVPPEKLVIHEQITRDLRDYKATGPHVAVAKRLAARGVKIRPGTVISYIVLKGSGRIGDRAIPADEFDPTKHRYDAEYYIENQVLPAVERILKAFGYRKEDLRYQKTKQVGLGAWLKVKGKK",conversion rate (C.R.) of extension product,83%
"I486F: 9° N-III mutant I486F, nucleotide binding pocket (protein) MILDTDYITENGKPVIRVFKKENGEFKIEYDRTFEPYFYALLKDDSAIEDVKKVTAKRHGTVVKVKRAEKVQKKFLGRPIEVWKLYFNHPQDVPAIRDRIRAHPAVVDIYEYDIPFAKRYLIDKGLIPMEGDEELTMLAFAIATLYHEGEEFGTGPILMISYADGSEARVITWKKIDLPYVDVVSTEKEMIKRFLRVVREKDPDVLITYNGDNFDFAYLKKRCEELGIKFTLGRDGSEPKIQRMGDRFAVEVKGRIHFDLYPVIRRTINLPTYTLEAVYEAVFGKPKEKVYAEEIAQAWESGEGLERVARYSMEDAKVTYELGREFFPMEAQLSRLIGQSLWDVSRSSTGNLVEWFLLRKAYKRNELAPNKPDERELARRRGGYAGGYVKEPERGLWDNIVYLDFRSSAVSIIITHNVSPDTLNREGCKEYDVAPEVGHKFCKDFPGFIPSLLGDLLEERQKIKRKMKATVDPLEKKLLDYRQRLFKILANSFYGYYGYAKARWYCKECAESVTAWGREYIEMVIRELEEKFGFKVLYADTDGLHATIPGADAETVKKKAKEFLKYINPKLPGLLELEYEGFYVRGFFVTKKKYAVIDEEGKITTRGLEIVRRDWSEIAKETQARVLEAILKHGDVEEAVRIVKEVTEKLSKYEVPPEKLVIHEQITRDLRDYKATGPHVAVAKRLAARGVKIRPGTVISYIVLKGSGRIGDRAIPADEFDPTKHRYDAEYYIENQVLPAVERILKAFGYRKEDLRYQKTKQVGLGAWLKVKGKK",conversion rate (C.R.) of extension product,81%
"I486P: 9° N-III mutant I486P, nucleotide binding pocket (protein) MILDTDYITENGKPVIRVFKKENGEFKIEYDRTFEPYFYALLKDDSAIEDVKKVTAKRHGTVVKVKRAEKVQKKFLGRPIEVWKLYFNHPQDVPAIRDRIRAHPAVVDIYEYDIPFAKRYLIDKGLIPMEGDEELTMLAFAIATLYHEGEEFGTGPILMISYADGSEARVITWKKIDLPYVDVVSTEKEMIKRFLRVVREKDPDVLITYNGDNFDFAYLKKRCEELGIKFTLGRDGSEPKIQRMGDRFAVEVKGRIHFDLYPVIRRTINLPTYTLEAVYEAVFGKPKEKVYAEEIAQAWESGEGLERVARYSMEDAKVTYELGREFFPMEAQLSRLIGQSLWDVSRSSTGNLVEWFLLRKAYKRNELAPNKPDERELARRRGGYAGGYVKEPERGLWDNIVYLDFRSSAVSIIITHNVSPDTLNREGCKEYDVAPEVGHKFCKDFPGFIPSLLGDLLEERQKIKRKMKATVDPLEKKLLDYRQRLPKILANSFYGYYGYAKARWYCKECAESVTAWGREYIEMVIRELEEKFGFKVLYADTDGLHATIPGADAETVKKKAKEFLKYINPKLPGLLELEYEGFYVRGFFVTKKKYAVIDEEGKITTRGLEIVRRDWSEIAKETQARVLEAILKHGDVEEAVRIVKEVTEKLSKYEVPPEKLVIHEQITRDLRDYKATGPHVAVAKRLAARGVKIRPGTVISYIVLKGSGRIGDRAIPADEFDPTKHRYDAEYYIENQVLPAVERILKAFGYRKEDLRYQKTKQVGLGAWLKVKGKK",conversion rate (C.R.) of extension product,100%
"I486A: 9° N-III mutant I486A, nucleotide binding pocket (protein) MILDTDYITENGKPVIRVFKKENGEFKIEYDRTFEPYFYALLKDDSAIEDVKKVTAKRHGTVVKVKRAEKVQKKFLGRPIEVWKLYFNHPQDVPAIRDRIRAHPAVVDIYEYDIPFAKRYLIDKGLIPMEGDEELTMLAFAIATLYHEGEEFGTGPILMISYADGSEARVITWKKIDLPYVDVVSTEKEMIKRFLRVVREKDPDVLITYNGDNFDFAYLKKRCEELGIKFTLGRDGSEPKIQRMGDRFAVEVKGRIHFDLYPVIRRTINLPTYTLEAVYEAVFGKPKEKVYAEEIAQAWESGEGLERVARYSMEDAKVTYELGREFFPMEAQLSRLIGQSLWDVSRSSTGNLVEWFLLRKAYKRNELAPNKPDERELARRRGGYAGGYVKEPERGLWDNIVYLDFRSSAVSIIITHNVSPDTLNREGCKEYDVAPEVGHKFCKDFPGFIPSLLGDLLEERQKIKRKMKATVDPLEKKLLDYRQRLAKILANSFYGYYGYAKARWYCKECAESVTAWGREYIEMVIRELEEKFGFKVLYADTDGLHATIPGADAETVKKKAKEFLKYINPKLPGLLELEYEGFYVRGFFVTKKKYAVIDEEGKITTRGLEIVRRDWSEIAKETQARVLEAILKHGDVEEAVRIVKEVTEKLSKYEVPPEKLVIHEQITRDLRDYKATGPHVAVAKRLAARGVKIRPGTVISYIVLKGSGRIGDRAIPADEFDPTKHRYDAEYYIENQVLPAVERILKAFGYRKEDLRYQKTKQVGLGAWLKVKGKK",conversion rate (C.R.) of extension product,82%
"L485F: 9° N-III mutant L485F, nucleotide binding pocket (protein) MILDTDYITENGKPVIRVFKKENGEFKIEYDRTFEPYFYALLKDDSAIEDVKKVTAKRHGTVVKVKRAEKVQKKFLGRPIEVWKLYFNHPQDVPAIRDRIRAHPAVVDIYEYDIPFAKRYLIDKGLIPMEGDEELTMLAFAIATLYHEGEEFGTGPILMISYADGSEARVITWKKIDLPYVDVVSTEKEMIKRFLRVVREKDPDVLITYNGDNFDFAYLKKRCEELGIKFTLGRDGSEPKIQRMGDRFAVEVKGRIHFDLYPVIRRTINLPTYTLEAVYEAVFGKPKEKVYAEEIAQAWESGEGLERVARYSMEDAKVTYELGREFFPMEAQLSRLIGQSLWDVSRSSTGNLVEWFLLRKAYKRNELAPNKPDERELARRRGGYAGGYVKEPERGLWDNIVYLDFRSSAVSIIITHNVSPDTLNREGCKEYDVAPEVGHKFCKDFPGFIPSLLGDLLEERQKIKRKMKATVDPLEKKLLDYRQRFIKILANSFYGYYGYAKARWYCKECAESVTAWGREYIEMVIRELEEKFGFKVLYADTDGLHATIPGADAETVKKKAKEFLKYINPKLPGLLELEYEGFYVRGFFVTKKKYAVIDEEGKITTRGLEIVRRDWSEIAKETQARVLEAILKHGDVEEAVRIVKEVTEKLSKYEVPPEKLVIHEQITRDLRDYKATGPHVAVAKRLAARGVKIRPGTVISYIVLKGSGRIGDRAIPADEFDPTKHRYDAEYYIENQVLPAVERILKAFGYRKEDLRYQKTKQVGLGAWLKVKGKK",conversion rate (C.R.) of extension product,74%
"I486R: 9° N-III mutant I486R, nucleotide binding pocket (protein) MILDTDYITENGKPVIRVFKKENGEFKIEYDRTFEPYFYALLKDDSAIEDVKKVTAKRHGTVVKVKRAEKVQKKFLGRPIEVWKLYFNHPQDVPAIRDRIRAHPAVVDIYEYDIPFAKRYLIDKGLIPMEGDEELTMLAFAIATLYHEGEEFGTGPILMISYADGSEARVITWKKIDLPYVDVVSTEKEMIKRFLRVVREKDPDVLITYNGDNFDFAYLKKRCEELGIKFTLGRDGSEPKIQRMGDRFAVEVKGRIHFDLYPVIRRTINLPTYTLEAVYEAVFGKPKEKVYAEEIAQAWESGEGLERVARYSMEDAKVTYELGREFFPMEAQLSRLIGQSLWDVSRSSTGNLVEWFLLRKAYKRNELAPNKPDERELARRRGGYAGGYVKEPERGLWDNIVYLDFRSSAVSIIITHNVSPDTLNREGCKEYDVAPEVGHKFCKDFPGFIPSLLGDLLEERQKIKRKMKATVDPLEKKLLDYRQRLRKILANSFYGYYGYAKARWYCKECAESVTAWGREYIEMVIRELEEKFGFKVLYADTDGLHATIPGADAETVKKKAKEFLKYINPKLPGLLELEYEGFYVRGFFVTKKKYAVIDEEGKITTRGLEIVRRDWSEIAKETQARVLEAILKHGDVEEAVRIVKEVTEKLSKYEVPPEKLVIHEQITRDLRDYKATGPHVAVAKRLAARGVKIRPGTVISYIVLKGSGRIGDRAIPADEFDPTKHRYDAEYYIENQVLPAVERILKAFGYRKEDLRYQKTKQVGLGAWLKVKGKK",conversion rate (C.R.) of extension product,87%
"V282F: 9° N-III mutant V282F, nucleotide binding pocket (protein) MILDTDYITENGKPVIRVFKKENGEFKIEYDRTFEPYFYALLKDDSAIEDVKKVTAKRHGTVVKVKRAEKVQKKFLGRPIEVWKLYFNHPQDVPAIRDRIRAHPAVVDIYEYDIPFAKRYLIDKGLIPMEGDEELTMLAFAIATLYHEGEEFGTGPILMISYADGSEARVITWKKIDLPYVDVVSTEKEMIKRFLRVVREKDPDVLITYNGDNFDFAYLKKRCEELGIKFTLGRDGSEPKIQRMGDRFAVEVKGRIHFDLYPVIRRTINLPTYTLEAVYEAFFGKPKEKVYAEEIAQAWESGEGLERVARYSMEDAKVTYELGREFFPMEAQLSRLIGQSLWDVSRSSTGNLVEWFLLRKAYKRNELAPNKPDERELARRRGGYAGGYVKEPERGLWDNIVYLDFRSSAVSIIITHNVSPDTLNREGCKEYDVAPEVGHKFCKDFPGFIPSLLGDLLEERQKIKRKMKATVDPLEKKLLDYRQRLIKILANSFYGYYGYAKARWYCKECAESVTAWGREYIEMVIRELEEKFGFKVLYADTDGLHATIPGADAETVKKKAKEFLKYINPKLPGLLELEYEGFYVRGFFVTKKKYAVIDEEGKITTRGLEIVRRDWSEIAKETQARVLEAILKHGDVEEAVRIVKEVTEKLSKYEVPPEKLVIHEQITRDLRDYKATGPHVAVAKRLAARGVKIRPGTVISYIVLKGSGRIGDRAIPADEFDPTKHRYDAEYYIENQVLPAVERILKAFGYRKEDLRYQKTKQVGLGAWLKVKGKK",conversion rate (C.R.) of extension product,66%
